The data set addresses human serum albumin (HSA) (Homo sapiens, UniProt P02768 25-609). The data set can be described thus: graphene oxide fluorescence recovery (competition with GO quencher); PBS; PBS or PBS with 2% (w/v) boric acid, ambient temperature, 5 mg/L GO stock, 30 min with HSA in the dark; pH not given. To be noted: protein: commercial; label: 5'-Cy5.

human serum albumin (HSA), sequence (P02768 25-609): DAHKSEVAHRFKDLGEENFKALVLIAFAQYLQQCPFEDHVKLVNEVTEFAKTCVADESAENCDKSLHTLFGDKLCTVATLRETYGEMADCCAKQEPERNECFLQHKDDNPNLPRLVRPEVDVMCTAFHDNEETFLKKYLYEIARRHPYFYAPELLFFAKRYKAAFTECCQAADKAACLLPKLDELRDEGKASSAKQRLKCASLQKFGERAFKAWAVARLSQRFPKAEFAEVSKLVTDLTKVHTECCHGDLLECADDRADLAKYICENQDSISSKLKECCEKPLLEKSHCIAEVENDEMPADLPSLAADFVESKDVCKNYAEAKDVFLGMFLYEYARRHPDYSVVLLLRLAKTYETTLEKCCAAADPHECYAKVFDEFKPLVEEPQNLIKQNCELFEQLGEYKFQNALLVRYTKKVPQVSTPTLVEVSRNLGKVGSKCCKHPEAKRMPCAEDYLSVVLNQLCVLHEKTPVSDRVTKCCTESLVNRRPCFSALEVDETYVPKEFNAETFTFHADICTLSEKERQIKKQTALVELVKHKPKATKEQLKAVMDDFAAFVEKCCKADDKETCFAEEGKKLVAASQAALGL

B1: H8 aptamer (ssDNA)
DNA: ATACCAGCTTATTCAATTCCCCCGGCTTTGGTTTAGAGGTAGTTGCTCATTACTTGTACGCTCCGGATGAGATAGTAAGTGCAATCT
Turning to B1, the binding result was “binds”.

(Values after publication PMC9687920, “Effects of Boric Acid and Storage Temperature on the Analysis of Microalbumin Using Aptasensor-Based Fluorescent Detection”.)
